In patent US20210340233A1 (CRESCENDO BIOLOGICS, published 2021):

Legend:
[1] = target: mouse serum albumin (MSA) (mouse, UniProt P07724 25-608); experiment: BLI (Octet RED384), albumin amine-coupled to AR2G biosensor
Description: (§1) Binding studies with human, cyno and mouse serum albumin were carried out using the FortéBio OCTET RED384 instrument. Serum albumin (HSA, CSA, MSA) were coupled to AR2G biosensors by amine coupling using the amine reagent coupling kit (2nd generation, FortéBio). Briefly AR2G biosensors were rehydrated in water and then activated using EDC/sNHS reagents over 10 minutes. The activated biosensors were dipped into wells containing diluted serum albumin (HSA, CSA, MSA) to 10 ug/ml in 10 mM sodium acetate pH 5.0 for 10 minutes before free active sites were quenched using 1M Ethanolamine pH 8.5 over 10 minutes. These were then dipped into 10 mM glycine pH 2.5 to stabilise the surface. […] Anomalous or poorly fitting curves were excluded from the analysis.

[2] = target: T1, Human Serum Albumin (HSA) (human, UniProt P02768 25-609); experiment: BLI (Octet RED384), albumin amine-coupled to AR2G biosensor, 1:1 model
T1 construct: Recombinant HSA from Sigma A9731 is named only for immunisation
Description: as §1

Cyno Serum Albumin (CSA) [3] = target: T2, Cyno Serum Albumin (CSA) (cynomolgus, UniProt A2V9Z4 25-608); experiment: as above
T2 construct: Bought protein; also called cynomolgus serum albumin
Description: as §1

[4] = target: T1, Human Serum Albumin (HSA); experiment: BIAcore (Affinity), pH5; pH 5
Cyno Serum Albumin (CSA) [5] = target: T2, Cyno Serum Albumin (CSA); experiment: BIAcore (Affinity), pH5; pH 5
[6] = target: T1, Human Serum Albumin (HSA); experiment: BIAcore (Affinity), pH7; pH 7
Cyno Serum Albumin (CSA) [7] = target: T2, Cyno Serum Albumin (CSA); experiment: BIAcore (Affinity), pH7; pH 7

Sequence of mouse serum albumin (MSA) (P07724 25-608 limits assumed): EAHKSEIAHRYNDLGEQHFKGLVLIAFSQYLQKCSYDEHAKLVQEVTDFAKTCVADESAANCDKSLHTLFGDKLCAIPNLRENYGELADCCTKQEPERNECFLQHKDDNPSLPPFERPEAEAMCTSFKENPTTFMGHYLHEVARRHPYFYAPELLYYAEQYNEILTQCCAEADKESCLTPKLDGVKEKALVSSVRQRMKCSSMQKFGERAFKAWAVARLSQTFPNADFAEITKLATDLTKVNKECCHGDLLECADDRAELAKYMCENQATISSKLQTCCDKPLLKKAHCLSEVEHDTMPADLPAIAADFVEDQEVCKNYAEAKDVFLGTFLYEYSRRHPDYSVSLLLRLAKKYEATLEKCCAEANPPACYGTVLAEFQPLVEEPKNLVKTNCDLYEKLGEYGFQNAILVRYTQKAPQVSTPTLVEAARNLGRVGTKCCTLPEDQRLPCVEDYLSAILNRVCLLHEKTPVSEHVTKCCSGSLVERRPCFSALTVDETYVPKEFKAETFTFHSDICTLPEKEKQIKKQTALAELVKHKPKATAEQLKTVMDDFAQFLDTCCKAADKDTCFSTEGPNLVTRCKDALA

Binder | binding result [1] | Kd [2] | koff [2] | kon [2] | Kd (Cyno Serum Albumin (CSA) [3]) | koff (Cyno Serum Albumin (CSA) [3]) | kon (Cyno Serum Albumin (CSA) [3]) | Kd [4] | koff [4] | kon [4] | Kd (Cyno Serum Albumin (CSA) [5]) | koff (Cyno Serum Albumin (CSA) [5]) | kon (Cyno Serum Albumin (CSA) [5]) | Kd [6] | koff [6] | kon [6] | Kd (Cyno Serum Albumin (CSA) [7]) | koff (Cyno Serum Albumin (CSA) [7]) | kon (Cyno Serum Albumin (CSA) [7])
trispecific molecule (SEQ ID NO. 17) including Humabody ® 1 (bispecific antibody, 1 at the C-terminal end; also called trivalent compound; trivalent construct) EVQLVESGGGVVQPGRSLRLSCAASGFSFSGYGMHWVRQAPGKGLEWVAYISYDGSNKYYADSVKGRFTISRDNSKNTLYLQMNSLRAEDTAVYYCAKDPAWGLRLGESSSYDFDIWGQGTMVTVSSGGGGSGGGGSGGGGSGGGGSGGGGSGGGGSEVQLVESGGGLVQPGGSLRLSCAASGFTLSNYWMNWVRQAPGKGLEWVANINQDGSERYYVDSVKGRFTISRDNAKNSLYLQMNSLRAEDTAVYYCARGGEGYGVDHYGLDVSGQGTTVTVSSGGGGSGGGGSGGGGSGGGGSGGGGSGGGGSEVQLVESGGGLVQPGRSLRLSCAASGFTFHHYAMHWVRQAPGKGLEWVSGISWNGNKITYADSVKGRFTISRDNAKNSLYLQMNSLRAEDTALYYCVRDSSLFIVGAPTFEHWGRGTLVTVSSGGGGSGGGGSGGGGSGGGGS | no binding (tested: top concentration 1500 nM) | 4.83 nM | 0.00108 s⁻¹ | 238000 M⁻¹ s⁻¹ | 102 nM | 0.0147 s⁻¹ | 144000 M⁻¹ s⁻¹ | – | – | – | – | – | – | – | – | – | – | – | –
Variant of SEQ ID NO. 1 with E111→D and R115→Q (VHH, Human single VH domain) VHH: EVQLVESGGGLVQPGRSLRLSCAASGFTFHHYAMHWVRQAPGKGLEWVSGISWNGNKITYADSVKGRFTISRDNAKNSLYLQMNSLRAEDTALYYCVRDSSLFIVGAPTFDHWGQGTLVTVSS | – | – | – | – | – | – | – | 13 nM | 0.00319 s⁻¹ | 242000 M⁻¹ s⁻¹ | 99 nM | 0.0241 s⁻¹ | 244000 M⁻¹ s⁻¹ | 6 nM | 0.00162 s⁻¹ | 255000 M⁻¹ s⁻¹ | 67 nM | 0.0168 s⁻¹ | 250000 M⁻¹ s⁻¹
Humabody ® 1 (SEQ ID NO. 1) (VHH, Human single VH domain antibody from transgenic mice, not camelid; also called Humabody ® 1 VH; Humabody ® 1-ctag) VHH: EVQLVESGGGLVQPGRSLRLSCAASGFTFHHYAMHWVRQAPGKGLEWVSGISWNGNKITYADSVKGRFTISRDNAKNSLYLQMNSLRAEDTALYYCVRDSSLFIVGAPTFEHWGRGTLVTVSS | – | – | – | – | – | – | – | 12 nM | – | – | 96 nM | – | – | 3 nM | – | – | 33 nM | – | –
